Tests used:
[1] = molecular target: T1, biotinylated recombinant human BCMA (Acro Biosystems Cat: #BC7-H82F0) (human, UniProt Q02223 1-54, biotinylated); experiment: flow cytometry; CTX120 cells stained with biotinylated BCMA and fluorescent streptavidin
T1 construct: Bought reagent; Detected with fluorescent streptavidin
T1 sequence (looked up): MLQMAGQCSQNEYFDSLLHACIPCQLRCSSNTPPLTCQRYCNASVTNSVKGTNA
Method: The resultant genetically engineered T cells were characterized for incorporation of the desired gene edits: loss of TCR, loss of MHC I expression, and expression of an anti-BCMA CAR. Approximately one week after gene-editing, allogeneic T cells were assessed for surface expression of TCR, β2M, and anti-BCMA CAR using flow cytometry. The allogeneic cells were stained with biotinylated recombinant human BCMA (Acro Biosystems Cat: #BC7-H82F0) and tagged with fluorescent streptavidin and with fluorescent antibodies targeting cell surface markers. The percentage of cells that were TCR⁻, β2M⁻, and anti-BCMA CAR⁺ was determined. Nine lots of CTX120 cells were prepared from eight healthy donors.

[2] = molecular target: T2, mouse BCMA (mouse, UniProt O88472 1-49, limits assumed); experiment: not described (statement within Example 5)
T2 construct: also called murine BCMA
T2 chain (looked up): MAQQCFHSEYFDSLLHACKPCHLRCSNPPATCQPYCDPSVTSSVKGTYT

B1: anti-BCMA CAR (CTX-166b) expressed on CTX120 cells (other)
chain: QVQLVQSGAELKKPGASVKVSCKASGNTLTNYVIHWVRQAPGQRLEWMGYILPYNDLTKYSQKFQGRVTITRDKSASTAYMELSSLRSEDTAVYYCTRWDWDGFFDPWGQGTTVTVSSGGGGSGGGGSGGGGSEIVMTQSPATLSVSPGERASISCRASQSLVHSNGNTHLHWYQQRPGQAPRLLIYSVSNRFSEVPARFSGSGSGTDFTLTISSVESEDFAVYYCSQTSHIPYTFGGGTKLEIKSAAAFVPVFLPAKPTTTPAPRPPTPAPTIASQPLSLRPEACRPAAGGAVHTRGLDFACDIYIWAPLAGTCGVLLLSLVITLYCNHRNRKRGRKKLLYIFKQPFMRPVQTTQEEDGCSCRFPEEEEGGCELRVKFSRSADAPAYQQGQNQLYNELNLGRREEYDVLDKRRGRDPEMGGKPRRKNPQEGLYNELQKDKMAEAYSEIGMKGERRRGKGHDGLYQGLSTATKDTYDALHMQALPPR
notes: TRAC and B2M disrupted; also called CTX120 anti-BCMA CAR
B1: binds [1]; no binding [2].

From patent publication US20230220059A1 (CRISPR THERAPEUTICS, published 2023)
